This is an account of results in patent publication US20250084183A1.

pKd: −log10 of the molar value.

This assay concerns the target CD99 on RD-ES and SK-ES-1 Ewing sarcoma cells (UniProt P14209). Description: not stated (given with the antibody's description, refers to FIG. 57).

On to αCD99 antibody (clone: 12E7), for which the pKd – broadly, −log10 of the Kd, conventionally taken in molar units – was 8.00.
